In patent publication US20220229068A1, “DETECTION OF PROTEIN TO PROTEIN INTERACTIONS” (THE GOVERNING COUNCIL OF THE UNIVERSITY OF TORONTO, priority 2019, published 2022):
One block for each substance: values may come before it.

Tests used:
Assay in all cases: SIMPL ELISA, bait-IN/prey-CIC
[1] = target: T1, VAV1 (prey, CIC format) (human) (UniProt P15498)
T1 sequence (looked up): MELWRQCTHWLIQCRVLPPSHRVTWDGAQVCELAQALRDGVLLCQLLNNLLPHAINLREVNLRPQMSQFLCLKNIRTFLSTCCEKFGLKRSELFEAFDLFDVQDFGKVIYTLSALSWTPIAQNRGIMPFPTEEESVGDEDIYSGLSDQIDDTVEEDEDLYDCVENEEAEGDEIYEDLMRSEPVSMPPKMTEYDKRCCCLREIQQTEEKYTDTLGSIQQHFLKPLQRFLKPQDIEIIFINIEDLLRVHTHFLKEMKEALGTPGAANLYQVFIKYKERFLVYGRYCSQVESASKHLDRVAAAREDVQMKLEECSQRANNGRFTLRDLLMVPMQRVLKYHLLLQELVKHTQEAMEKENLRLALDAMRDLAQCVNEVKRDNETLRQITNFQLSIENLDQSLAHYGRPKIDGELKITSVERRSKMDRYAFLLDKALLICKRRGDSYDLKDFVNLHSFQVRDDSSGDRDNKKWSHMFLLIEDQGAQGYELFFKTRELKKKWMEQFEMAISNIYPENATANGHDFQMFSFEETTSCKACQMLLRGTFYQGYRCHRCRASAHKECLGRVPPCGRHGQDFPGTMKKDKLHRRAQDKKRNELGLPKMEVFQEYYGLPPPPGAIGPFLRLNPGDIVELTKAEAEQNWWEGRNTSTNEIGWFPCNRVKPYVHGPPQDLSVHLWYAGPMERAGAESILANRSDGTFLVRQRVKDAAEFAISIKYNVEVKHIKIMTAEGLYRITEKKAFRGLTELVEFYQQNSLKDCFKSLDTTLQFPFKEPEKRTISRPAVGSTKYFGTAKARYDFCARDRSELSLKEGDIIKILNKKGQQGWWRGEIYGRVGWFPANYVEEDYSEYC

[2] = target: CRADD (prey, CIC format) (human) (UniProt P78560)
Sequence of CRADD (prey, CIC format) (human) (P78560 whole entry): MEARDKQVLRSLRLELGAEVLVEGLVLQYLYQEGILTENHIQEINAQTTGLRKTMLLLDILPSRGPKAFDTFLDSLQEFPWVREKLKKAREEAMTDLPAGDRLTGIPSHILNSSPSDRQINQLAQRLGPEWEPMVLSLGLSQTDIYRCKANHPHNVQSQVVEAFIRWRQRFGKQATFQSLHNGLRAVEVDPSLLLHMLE

[3] = target: CD58 (prey, CIC format) (human) (UniProt P19256)
Sequence of CD58 (prey, CIC format) (human) (P19256 29-250 limits assumed): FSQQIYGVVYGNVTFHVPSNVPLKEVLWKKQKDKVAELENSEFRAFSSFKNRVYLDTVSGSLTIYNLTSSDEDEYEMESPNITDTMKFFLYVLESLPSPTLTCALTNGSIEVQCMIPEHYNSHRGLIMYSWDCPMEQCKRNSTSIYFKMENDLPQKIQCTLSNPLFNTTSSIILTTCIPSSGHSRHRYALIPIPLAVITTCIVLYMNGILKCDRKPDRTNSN

[4] = target: HGS (prey, CIC format) (human) (UniProt O14964)
Sequence of HGS (prey, CIC format) (human) (O14964 whole entry): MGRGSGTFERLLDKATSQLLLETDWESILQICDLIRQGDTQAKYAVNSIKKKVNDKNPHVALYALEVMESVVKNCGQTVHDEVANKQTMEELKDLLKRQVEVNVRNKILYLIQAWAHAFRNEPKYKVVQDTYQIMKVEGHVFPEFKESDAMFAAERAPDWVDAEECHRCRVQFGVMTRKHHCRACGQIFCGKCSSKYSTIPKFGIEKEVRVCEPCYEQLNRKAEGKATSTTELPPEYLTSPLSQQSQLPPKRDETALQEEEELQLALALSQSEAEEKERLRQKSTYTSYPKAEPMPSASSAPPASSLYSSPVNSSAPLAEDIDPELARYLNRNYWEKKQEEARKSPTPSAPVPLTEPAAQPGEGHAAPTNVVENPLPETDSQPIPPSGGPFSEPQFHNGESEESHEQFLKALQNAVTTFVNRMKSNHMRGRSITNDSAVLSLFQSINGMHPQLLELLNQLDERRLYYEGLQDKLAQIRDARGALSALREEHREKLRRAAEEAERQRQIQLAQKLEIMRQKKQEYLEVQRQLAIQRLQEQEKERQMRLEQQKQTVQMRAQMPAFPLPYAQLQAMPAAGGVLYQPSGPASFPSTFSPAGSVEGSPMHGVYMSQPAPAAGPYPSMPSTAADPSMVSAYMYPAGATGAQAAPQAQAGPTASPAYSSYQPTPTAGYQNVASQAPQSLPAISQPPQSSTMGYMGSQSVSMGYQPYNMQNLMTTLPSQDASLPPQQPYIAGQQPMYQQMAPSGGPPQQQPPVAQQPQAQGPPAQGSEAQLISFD

[5] = target: GTF2F2 (prey, CIC format) (human) (UniProt P13984)
[6] = target: UBE2I (prey, CIC format) (human) (UniProt P63279)
Sequence of UBE2I (prey, CIC format) (human) (P63279 whole entry): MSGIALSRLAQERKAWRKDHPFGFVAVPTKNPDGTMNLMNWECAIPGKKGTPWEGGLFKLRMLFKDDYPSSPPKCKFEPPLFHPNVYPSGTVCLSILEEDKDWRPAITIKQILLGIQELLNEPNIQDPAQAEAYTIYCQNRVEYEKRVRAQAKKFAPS

[7] = target: PDGFRB (prey, CIC format) (human) (UniProt P09619)
[8] = target: S100A7 (prey, CIC format) (human) (UniProt P31151)
Sequence of S100A7 (prey, CIC format) (human) (P31151 whole entry): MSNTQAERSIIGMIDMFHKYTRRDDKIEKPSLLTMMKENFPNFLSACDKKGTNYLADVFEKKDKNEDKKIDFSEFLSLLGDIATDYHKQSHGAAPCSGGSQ

[9] = target: PTK2 (prey, CIC format) (human) (UniProt Q05397)
Sequence of PTK2 (prey, CIC format) (human) (Q05397 whole entry): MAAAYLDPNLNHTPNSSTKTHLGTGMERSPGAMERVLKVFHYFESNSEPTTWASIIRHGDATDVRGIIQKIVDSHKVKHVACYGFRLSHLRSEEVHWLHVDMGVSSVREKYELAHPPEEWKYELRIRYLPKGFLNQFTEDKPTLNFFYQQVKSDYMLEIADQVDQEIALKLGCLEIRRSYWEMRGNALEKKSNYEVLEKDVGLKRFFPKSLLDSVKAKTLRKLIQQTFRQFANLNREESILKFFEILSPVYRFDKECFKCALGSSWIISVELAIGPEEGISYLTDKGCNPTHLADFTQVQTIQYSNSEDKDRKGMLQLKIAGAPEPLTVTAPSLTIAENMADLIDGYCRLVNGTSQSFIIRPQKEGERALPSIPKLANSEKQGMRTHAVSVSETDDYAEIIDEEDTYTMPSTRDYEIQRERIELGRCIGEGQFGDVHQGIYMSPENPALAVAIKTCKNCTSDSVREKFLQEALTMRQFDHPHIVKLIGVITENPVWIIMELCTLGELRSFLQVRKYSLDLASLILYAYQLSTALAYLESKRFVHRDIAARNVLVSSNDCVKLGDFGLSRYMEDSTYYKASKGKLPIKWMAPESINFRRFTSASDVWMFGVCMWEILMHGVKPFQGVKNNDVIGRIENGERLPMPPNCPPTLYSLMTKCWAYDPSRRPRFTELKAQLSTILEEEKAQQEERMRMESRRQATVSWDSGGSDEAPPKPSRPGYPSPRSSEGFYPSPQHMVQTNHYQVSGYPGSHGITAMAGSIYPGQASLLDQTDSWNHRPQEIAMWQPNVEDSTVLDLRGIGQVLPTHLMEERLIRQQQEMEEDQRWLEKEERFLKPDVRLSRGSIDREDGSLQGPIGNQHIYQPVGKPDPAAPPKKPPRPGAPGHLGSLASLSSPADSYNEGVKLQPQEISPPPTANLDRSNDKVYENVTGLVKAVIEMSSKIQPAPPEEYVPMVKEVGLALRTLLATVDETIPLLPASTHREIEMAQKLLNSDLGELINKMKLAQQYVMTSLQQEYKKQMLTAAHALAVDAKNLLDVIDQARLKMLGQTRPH

[10] = target: T2, PEX3 (prey, CIC format) (human) (UniProt P56589)
T2 sequence (looked up): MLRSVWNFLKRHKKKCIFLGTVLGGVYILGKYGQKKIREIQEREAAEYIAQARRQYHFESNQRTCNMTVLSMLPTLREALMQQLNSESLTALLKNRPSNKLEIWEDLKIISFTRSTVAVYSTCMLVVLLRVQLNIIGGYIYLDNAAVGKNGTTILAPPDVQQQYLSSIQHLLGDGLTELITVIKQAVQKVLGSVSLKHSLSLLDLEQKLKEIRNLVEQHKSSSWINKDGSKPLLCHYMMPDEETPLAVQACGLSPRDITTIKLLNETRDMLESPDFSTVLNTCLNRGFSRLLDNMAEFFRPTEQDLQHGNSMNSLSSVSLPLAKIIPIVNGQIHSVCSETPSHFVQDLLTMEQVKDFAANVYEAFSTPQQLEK

[11] = target: T3, LAT (prey, CIC format) (human) (UniProt O43561)
T3 sequence (looked up): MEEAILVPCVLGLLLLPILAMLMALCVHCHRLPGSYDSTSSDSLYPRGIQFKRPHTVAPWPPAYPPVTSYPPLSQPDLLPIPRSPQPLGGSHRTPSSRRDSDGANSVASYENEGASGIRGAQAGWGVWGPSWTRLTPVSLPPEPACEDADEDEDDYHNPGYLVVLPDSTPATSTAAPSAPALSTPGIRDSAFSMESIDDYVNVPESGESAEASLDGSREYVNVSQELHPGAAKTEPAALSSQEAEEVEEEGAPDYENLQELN

[12] = target: NCK1 (prey, CIC format) (human) (UniProt P16333)
[13] = target: LGALS3BP (prey, CIC format) (human) (UniProt Q08380)
Sequence of LGALS3BP (prey, CIC format) (human) (Q08380 19-585 limits assumed): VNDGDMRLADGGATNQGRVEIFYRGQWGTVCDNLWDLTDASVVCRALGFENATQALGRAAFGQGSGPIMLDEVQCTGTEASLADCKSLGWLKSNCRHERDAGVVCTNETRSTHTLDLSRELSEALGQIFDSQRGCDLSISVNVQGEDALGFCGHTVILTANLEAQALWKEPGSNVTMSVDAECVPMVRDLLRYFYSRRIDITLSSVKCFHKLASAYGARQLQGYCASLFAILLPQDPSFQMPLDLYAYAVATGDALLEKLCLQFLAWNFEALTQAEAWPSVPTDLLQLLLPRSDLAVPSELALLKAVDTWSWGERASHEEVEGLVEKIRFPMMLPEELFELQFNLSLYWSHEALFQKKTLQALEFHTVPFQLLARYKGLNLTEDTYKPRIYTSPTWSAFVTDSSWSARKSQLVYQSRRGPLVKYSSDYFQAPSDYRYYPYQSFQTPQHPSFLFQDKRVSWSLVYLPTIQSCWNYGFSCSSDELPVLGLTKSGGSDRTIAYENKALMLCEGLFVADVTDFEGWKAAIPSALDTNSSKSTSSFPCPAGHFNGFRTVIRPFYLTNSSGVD

[14] = target: LSM2 (prey, CIC format) (human) (UniProt Q9Y333)
Sequence of LSM2 (prey, CIC format) (human) (Q9Y333 whole entry): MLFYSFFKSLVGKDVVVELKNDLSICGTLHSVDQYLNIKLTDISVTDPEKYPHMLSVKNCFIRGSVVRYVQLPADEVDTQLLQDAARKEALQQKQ

[15] = target: FGFR1 (prey, CIC format) (human) (UniProt P11362)
[16] = target: T4, PEX19 (prey, CIC format) (human) (UniProt P40855)
T4 sequence (looked up): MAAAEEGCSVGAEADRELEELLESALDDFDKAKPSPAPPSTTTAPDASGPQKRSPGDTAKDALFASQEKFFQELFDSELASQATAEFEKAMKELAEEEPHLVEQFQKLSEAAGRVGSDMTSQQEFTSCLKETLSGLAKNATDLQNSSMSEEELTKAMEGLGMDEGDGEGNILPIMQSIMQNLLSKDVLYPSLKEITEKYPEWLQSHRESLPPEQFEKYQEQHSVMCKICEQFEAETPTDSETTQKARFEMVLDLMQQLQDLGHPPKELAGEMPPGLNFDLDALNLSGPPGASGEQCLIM

[17] = target: T5, NRG1 (prey, CIC format) (human) (UniProt Q02297)
T5 sequence (looked up): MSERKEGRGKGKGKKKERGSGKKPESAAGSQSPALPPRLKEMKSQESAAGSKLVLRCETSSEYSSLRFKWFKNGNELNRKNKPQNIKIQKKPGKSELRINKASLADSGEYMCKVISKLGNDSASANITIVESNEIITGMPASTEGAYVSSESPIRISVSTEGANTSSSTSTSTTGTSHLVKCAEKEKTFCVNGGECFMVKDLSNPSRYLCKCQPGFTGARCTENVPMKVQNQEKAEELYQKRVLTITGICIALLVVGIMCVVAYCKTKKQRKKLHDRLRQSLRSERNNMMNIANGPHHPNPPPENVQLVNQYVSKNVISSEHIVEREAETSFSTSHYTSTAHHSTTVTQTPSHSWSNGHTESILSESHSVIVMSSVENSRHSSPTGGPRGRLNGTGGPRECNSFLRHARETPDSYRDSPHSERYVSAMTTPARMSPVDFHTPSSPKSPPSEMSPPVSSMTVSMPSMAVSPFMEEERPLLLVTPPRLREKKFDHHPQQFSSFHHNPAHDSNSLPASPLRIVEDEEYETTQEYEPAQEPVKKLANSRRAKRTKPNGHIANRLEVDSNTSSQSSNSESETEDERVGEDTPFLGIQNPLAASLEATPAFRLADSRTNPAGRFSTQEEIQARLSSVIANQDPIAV

[18] = target: EZR (prey, CIC format) (human) (UniProt P15311)
Sequence of EZR (prey, CIC format) (human) (P15311 whole entry): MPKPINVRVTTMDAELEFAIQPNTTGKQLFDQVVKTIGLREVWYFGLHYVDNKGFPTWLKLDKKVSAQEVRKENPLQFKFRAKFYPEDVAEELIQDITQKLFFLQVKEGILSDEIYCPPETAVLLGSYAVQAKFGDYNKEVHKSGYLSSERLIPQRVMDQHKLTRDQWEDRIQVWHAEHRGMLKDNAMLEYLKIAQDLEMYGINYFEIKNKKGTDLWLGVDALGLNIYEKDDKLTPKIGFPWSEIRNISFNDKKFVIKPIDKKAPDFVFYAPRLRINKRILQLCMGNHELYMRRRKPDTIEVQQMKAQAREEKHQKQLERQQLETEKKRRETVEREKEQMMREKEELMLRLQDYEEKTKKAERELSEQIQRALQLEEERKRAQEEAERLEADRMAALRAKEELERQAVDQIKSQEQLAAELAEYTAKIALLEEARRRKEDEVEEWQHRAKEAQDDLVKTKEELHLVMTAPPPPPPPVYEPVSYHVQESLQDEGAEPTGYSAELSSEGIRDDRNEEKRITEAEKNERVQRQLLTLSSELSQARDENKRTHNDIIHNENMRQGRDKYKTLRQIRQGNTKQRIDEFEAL

[19] = target: SRC (prey, CIC format) (human) (UniProt P12931)
[20] = target: RAD23A (prey, CIC format) (human) (UniProt P54725)
Sequence of RAD23A (prey, CIC format) (human) (P54725 whole entry): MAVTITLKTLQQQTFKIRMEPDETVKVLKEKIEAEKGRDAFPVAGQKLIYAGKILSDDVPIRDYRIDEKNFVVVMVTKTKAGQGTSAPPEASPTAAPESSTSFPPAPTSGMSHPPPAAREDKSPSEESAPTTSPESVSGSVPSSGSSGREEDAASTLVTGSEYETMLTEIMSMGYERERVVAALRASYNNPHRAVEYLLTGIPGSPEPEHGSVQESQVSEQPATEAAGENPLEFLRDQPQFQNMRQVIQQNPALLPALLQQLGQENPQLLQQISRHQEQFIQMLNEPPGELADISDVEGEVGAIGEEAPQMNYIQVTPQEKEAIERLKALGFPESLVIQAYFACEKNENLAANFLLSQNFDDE

[21] = target: T6, NOD1 (prey, CIC format) (human) (UniProt Q9Y239)
T6 sequence (looked up): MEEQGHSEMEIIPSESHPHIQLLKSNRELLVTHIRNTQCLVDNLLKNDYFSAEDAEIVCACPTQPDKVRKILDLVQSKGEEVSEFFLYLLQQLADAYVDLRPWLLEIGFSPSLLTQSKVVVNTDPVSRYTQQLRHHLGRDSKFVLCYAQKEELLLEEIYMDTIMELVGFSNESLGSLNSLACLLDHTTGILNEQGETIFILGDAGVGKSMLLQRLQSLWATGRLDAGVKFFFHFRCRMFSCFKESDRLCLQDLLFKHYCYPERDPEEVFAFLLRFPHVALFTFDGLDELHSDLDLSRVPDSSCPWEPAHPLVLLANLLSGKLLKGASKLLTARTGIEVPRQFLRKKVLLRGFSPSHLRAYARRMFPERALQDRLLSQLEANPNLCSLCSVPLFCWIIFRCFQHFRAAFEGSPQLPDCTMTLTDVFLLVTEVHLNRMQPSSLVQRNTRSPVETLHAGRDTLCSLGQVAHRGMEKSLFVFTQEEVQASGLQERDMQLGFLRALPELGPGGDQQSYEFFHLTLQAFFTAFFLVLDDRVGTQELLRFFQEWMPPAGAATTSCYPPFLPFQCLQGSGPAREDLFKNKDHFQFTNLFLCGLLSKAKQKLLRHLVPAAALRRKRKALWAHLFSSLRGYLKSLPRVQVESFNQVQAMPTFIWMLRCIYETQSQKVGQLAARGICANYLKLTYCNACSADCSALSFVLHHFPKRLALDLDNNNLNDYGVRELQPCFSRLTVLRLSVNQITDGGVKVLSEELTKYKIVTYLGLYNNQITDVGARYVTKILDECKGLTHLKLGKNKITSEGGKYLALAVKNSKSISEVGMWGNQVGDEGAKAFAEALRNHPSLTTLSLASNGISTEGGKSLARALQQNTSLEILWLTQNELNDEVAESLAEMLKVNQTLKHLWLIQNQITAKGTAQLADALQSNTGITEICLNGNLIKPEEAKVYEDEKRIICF

[22] = target: TCL1A (prey, CIC format) (human) (UniProt P56279)
Sequence of TCL1A (prey, CIC format) (human) (P56279 whole entry): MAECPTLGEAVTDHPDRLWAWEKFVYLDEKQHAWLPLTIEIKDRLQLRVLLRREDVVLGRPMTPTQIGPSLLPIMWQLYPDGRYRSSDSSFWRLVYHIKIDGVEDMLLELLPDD

[23] = target: RPA3 (prey, CIC format) (human) (UniProt P35244)
Sequence of RPA3 (prey, CIC format) (human) (P35244 whole entry): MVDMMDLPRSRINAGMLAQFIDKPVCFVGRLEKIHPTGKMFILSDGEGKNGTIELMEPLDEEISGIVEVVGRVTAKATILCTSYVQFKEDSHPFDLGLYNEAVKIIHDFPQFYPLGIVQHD

[24] = target: SMAD4 (prey, CIC format) (human) (UniProt Q13485)
[25] = target: GRB2 (prey, CIC format) (human) (UniProt P62993)

Sequence of CASP2 (bait, IN format) (P42575 whole entry): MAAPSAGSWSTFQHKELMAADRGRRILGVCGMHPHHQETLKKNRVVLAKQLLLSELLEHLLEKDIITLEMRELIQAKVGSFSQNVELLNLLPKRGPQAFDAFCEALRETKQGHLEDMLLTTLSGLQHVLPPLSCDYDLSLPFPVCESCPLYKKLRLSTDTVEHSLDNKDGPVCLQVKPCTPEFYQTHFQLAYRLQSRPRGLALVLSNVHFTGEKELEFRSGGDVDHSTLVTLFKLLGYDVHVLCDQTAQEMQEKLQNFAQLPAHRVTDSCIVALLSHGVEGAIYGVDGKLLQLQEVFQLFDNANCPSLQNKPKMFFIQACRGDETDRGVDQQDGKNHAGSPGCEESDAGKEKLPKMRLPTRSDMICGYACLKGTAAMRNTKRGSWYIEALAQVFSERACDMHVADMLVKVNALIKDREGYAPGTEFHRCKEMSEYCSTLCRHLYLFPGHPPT

PLU mean [1]: 0.696
PLU mean [2]: 2.45
Substance: CASP2 (bait, IN format) (from UniProt P42575 1-452)

PLU mean [3]: 0.972
PLU mean [4]: 0.253
PLU mean [5]: 0.299
Substance: CD2 (bait, IN format) (from UniProt P06729 25-351) (receptor)

PLU mean [6]: 0.153
PLU mean [7]: 0.261
Substance: CRK (bait, IN format) (from UniProt P46108 1-304)

PLU mean [8]: 0.134
PLU mean [9]: 0.174
Substance: FABP5 (bait, IN format) (from UniProt Q01469 1-135)

PLU mean [1]: 1.39
PLU mean [10]: 0.0588
PLU mean [9]: 0.741
PLU mean [11]: 0.223
Substance: GRB2 (bait, IN format) (from UniProt P62993 1-217)

PLU mean [1]: 0.789
PLU mean [12]: 0.662
PLU mean [2]: 0.193
Substance: LCP2 (bait, IN format) (from UniProt Q13094 1-533)

PLU mean [13]: 0.248
PLU mean [14]: 0.162
Substance: LGALS3 (bait, IN format) (from UniProt P17931 1-250)

PLU mean [13]: 0.129
PLU mean [14]: 3.03
PLU mean [15]: 0.272
Substance: LSM3 (bait, IN format) (from UniProt P62310 1-102)

PLU mean [16]: 2.17
PLU mean [17]: 0.31
Substance: PEX14 (bait, IN format) (from UniProt O75381 1-377)

PLU mean [18]: 0.123
PLU mean [19]: 0.186
Substance: PRKAR2A (bait, IN format) (from UniProt P13861 1-404)

PLU mean [20]: 0.919
PLU mean [21]: 0.845
PLU mean [22]: 0.108
Substance: PSMD4 (bait, IN format) (from UniProt P55036 1-377)

PLU mean [8]: 0.0606
PLU mean [23]: 2.72
Substance: RPA2 (bait, IN format) (from UniProt P15927 1-270)

PLU mean [24]: 0.182
PLU mean [25]: 0.151
Substance: SMAD1 (bait, IN format) (from UniProt Q15797 1-465)

PLU mean [6]: 0.194
Substance: TP53 (bait, IN format) (from UniProt P04637 1-393)
